Patent US20040170630A1 (published 2004)

T1: recombinant heparanase 8 kDa/50 kDa heterodimer (baculovirus, insect cell expressed) (human, UniProt Q9Y251 36-109; Q9Y251 158-543)
T1 construct: domain: 8 kDa subunit;domain: 50 kDa subunit; Amplified from a mammary gland cDNA library; In one screening ELISA it was biotinylated; also called 8/50 heterodimer protein; purified recombinant heparanase
T1 sequence 1: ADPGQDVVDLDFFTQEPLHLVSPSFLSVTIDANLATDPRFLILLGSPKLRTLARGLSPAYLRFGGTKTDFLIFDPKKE
T1 sequence 2: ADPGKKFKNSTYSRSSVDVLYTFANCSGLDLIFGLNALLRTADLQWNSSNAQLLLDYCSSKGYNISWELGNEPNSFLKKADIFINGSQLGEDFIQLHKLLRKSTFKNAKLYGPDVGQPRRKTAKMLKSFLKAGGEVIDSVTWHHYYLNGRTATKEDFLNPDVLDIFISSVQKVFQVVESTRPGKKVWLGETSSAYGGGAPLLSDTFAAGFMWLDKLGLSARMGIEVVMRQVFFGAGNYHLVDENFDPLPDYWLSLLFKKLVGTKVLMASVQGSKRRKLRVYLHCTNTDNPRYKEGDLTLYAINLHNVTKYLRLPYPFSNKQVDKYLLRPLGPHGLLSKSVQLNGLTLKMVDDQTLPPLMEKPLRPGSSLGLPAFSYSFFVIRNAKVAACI


Experiments:
[1] = target: T1, recombinant heparanase 8 kDa/50 kDa …; test: ELISA on coated recombinant heparanase and on biotin-heparanase captured by streptavidin; hybridoma supernatants
Description: To select KM mice producing antibodies that bound heparanase, sera from immunized mice was tested by ELISA as described by Fishwild, D. et al. (1996). Briefly, microtiter plates were coated with purified recombinant heparanase from baculovirus at 1-2 μg /ml in PBS, 50 μl/wells incubated 4° C. overnight then blocked with 200 μl/well of 5% chicken serum in PBS/Tween (0.05%). Dilutions of plasma from heparanase-immunized mice were added to each well and incubated for 1-2 hours at ambient temperature. The plates were washed with PBS/Tween and then incubated with a goat-anti-human IgG Fc polyclonal antibody conjugated with horseradish peroxidase (HRP) for 1 hour at room temperature. After washing, the plates were developed with ABTS substrate (Sigma, A-1 888, 0.22 mg/ml) and analyzed by spectrophotometer at OD 415-495. Mice that developed the highest titers of anti-heparanase antibodies were used for fusions. Fusions were performed as described above and hybridoma supernatants were tested for anti-heparanase activity by ELISA. In order to select antibodies that bind to heparanase enzyme, an ELISA assay as described above and a biotinylated ELISA as described above with following modifications were applied. Briefly, ELISA plates were coated with streptavidin (Sigma catalog number: S-4762) at 1 μg/ml in PBS, 50 ul/well. After overnight incubation at 4° C., the plates were blocked with 200 μl/well of 5% chicken serum in PBS/Tween (0.05%). The plates were then washed with PBS/Tween three times. Biotin-heparanase was added to the plates at 1 μg/ml in PBS, 50 ul/well and then incubated for 1 hour at room temperature. 50 ul/well of the supernatants were then added to the plates and incubated for 1-2 hours at room temperature. The rest of the procedures were exactly the same as described above. Hybridomas secreting a monoclonal antibody that bound with high avidity to heparanase were selected for further characterization for enzymatic, motility and angiogenesis activities.

[2] = target: T1, recombinant heparanase 8 kDa/50 kDa …; test: competition binding format

Binder	binding result [1]	binding result [2]
human monoclonal antibody 5G10 (antibody, V domains shown, Human IgG kappa from a KM mouse hybridoma; subclass not reported) VH: QVQLVQSGAEVKKPGASVKVSCKVSGYTLTELSMHWVRQAPGKGLEWMGGFDPEDGETIYAQKFQGRVTMTEDTSTDTAYMELSSLRSEDTAVYYCATESLVRYFDWLSHFDYWGQGTLVTVSS VL: DIQMTQSPSSLSASVGDRVTITCRASQGISSWLAWYQQKPEKAPKSLIYAASSLQSGVPSRFSGSGSGTDFTLTISSLQPEDFATYYCQQYNSYPYTFGQGTKLEIK	binds	–
human monoclonal antibody 13B2 (antibody, V domains shown, Human IgG kappa from a KM mouse hybridoma; subclass not reported) VH: EVQLVESGGGLVQPGGSLRLSCAASGFTFSSYWMSWVRQAPGKGLEWVASIYQDGSEKYYVDSVKGRFTISRDNAKNSLYLQMNSLRAEDTAMYYCARELDWGWDYWGQGTLVTVSS VL: AIQLTQSPSSLSASVGDRVTITCRASQGISSALAWYQQKPGKAPKLLIYDASSLESGVPSRFSGSGSGTDFTLTISSLQPEDFATYYCQQFNSYPITFGQGTRLEIK	binds	–
human monoclonal antibody 1E7 (antibody, V domains shown, Human IgG kappa from a KM mouse hybridoma; subclass not reported) VH: EVQLVESGGGLVQPGGSLRLSCAASGFTFSSYWMSWVRQAPGKGLEWVASIYQDGSEKYYVDSVKGRFTISRDNAKNSLYLQMNSLRAEDTAVYYCARELDWGWDYWGQGTLVTVSS VL: AIQLTQSPSSLSASVGDRVTITCRASQGISSALAWYQQKPGKAPKLLIYDASSLESGVPSRFSGSGSGTDFTLTISSLQPEDFATYYCQQFNSYPITFGQGTRLEIK	binds	–

Results, then the binder that gave them:

binding result [1]	binding result [2]	Binder
–	binds	human monoclonal antibody 22D9 (antibody, V domains shown, Fully human IgG with kappa light chain from a KM mouse hybridoma, purified by Protein A) VH: QVQLVQSGAEVKKPGASVKVSCKVSGYTLTELSMHWVRQAPGKGLEWMGGFDPEDGETIYAQKFQGRVTMTEDTSTDTAYMELSSLRSDDTAVYYCATESLVRYFDWLSHFDYWGQGTLVTVSS VL: DIQMTQSPSSLSASVGDRVTITCRASQGISSWLAWYQQKPEKAPKSLIYAASSLQSGVPSRFSGSGSGTDFTLTISSLQPEDFATYYCQQYNSYPYTFGQGTKLEIK
binds	–	human monoclonal antibody 2H8 (antibody, V domains shown, Human IgG kappa from a KM mouse hybridoma; subclass not reported) VH: QVQLVQSGAEVKKPGASVKVSCKVSGYTLTELSMHWVRQAPGKGLEWMGGFDPEDGETIYAQKFQDRVTMTEDTSTDTAYMELSSLRSEDTAVYYCTTESLVRYFDWLSHFDYWGQGTLVTVSS VL: DIQMTQSPSSLSASVGDRVTITCRASQGISSWLAWYQQKPEKAPKSLIYAASSLQSGVPSRFSGSGSGTDFTLTISSLQPEDFATYYCQQYNSYPYTFGQGTKLEIK
